Assay results from publication doi:10.1101/2025.05.20.655083, “Importin α/β1 dependent nuclear import of Black Sea Bass Polyomavirus Large Tumor Antigen is mediated by a classical NLS located downstream of the SF3 helicase domain” (bioRxiv, 2025).
Where no end group is shown, it is not given here. The star is where a group is joined. FITC = O=C1OC2(c3ccc(O)cc3Oc3cc(O)ccc32)c2ccc(NC(=S)*)cc21; Ahx = NCCCCCC(=O)O

Assays:
Assay in all cases: native gel or EMSA; 1.5% agarose gel in TB buffer (0.45 mM tris, 0.45 mM boric acid, pH ~8.5), 2 hours at 75 V; recombinant IMPs 20 μM, FITC peptides 10 μM; peptides seen with a UV filter, proteins by Coomassie staining
Details in all cases: both partners purified
human importin β3 = target: T1, human importin β3 (human, UniProt O00410 1-1097)
T1 construct: human importin β3; In pET30a with His tag and TEV site; no cleavage step is described in the purification; also called hIMPβ3; IMPβ3; source: E. coli BL21(DE3)pLysS, purified (HisTrap, Superdex 200 SEC)
T1 sequence (looked up): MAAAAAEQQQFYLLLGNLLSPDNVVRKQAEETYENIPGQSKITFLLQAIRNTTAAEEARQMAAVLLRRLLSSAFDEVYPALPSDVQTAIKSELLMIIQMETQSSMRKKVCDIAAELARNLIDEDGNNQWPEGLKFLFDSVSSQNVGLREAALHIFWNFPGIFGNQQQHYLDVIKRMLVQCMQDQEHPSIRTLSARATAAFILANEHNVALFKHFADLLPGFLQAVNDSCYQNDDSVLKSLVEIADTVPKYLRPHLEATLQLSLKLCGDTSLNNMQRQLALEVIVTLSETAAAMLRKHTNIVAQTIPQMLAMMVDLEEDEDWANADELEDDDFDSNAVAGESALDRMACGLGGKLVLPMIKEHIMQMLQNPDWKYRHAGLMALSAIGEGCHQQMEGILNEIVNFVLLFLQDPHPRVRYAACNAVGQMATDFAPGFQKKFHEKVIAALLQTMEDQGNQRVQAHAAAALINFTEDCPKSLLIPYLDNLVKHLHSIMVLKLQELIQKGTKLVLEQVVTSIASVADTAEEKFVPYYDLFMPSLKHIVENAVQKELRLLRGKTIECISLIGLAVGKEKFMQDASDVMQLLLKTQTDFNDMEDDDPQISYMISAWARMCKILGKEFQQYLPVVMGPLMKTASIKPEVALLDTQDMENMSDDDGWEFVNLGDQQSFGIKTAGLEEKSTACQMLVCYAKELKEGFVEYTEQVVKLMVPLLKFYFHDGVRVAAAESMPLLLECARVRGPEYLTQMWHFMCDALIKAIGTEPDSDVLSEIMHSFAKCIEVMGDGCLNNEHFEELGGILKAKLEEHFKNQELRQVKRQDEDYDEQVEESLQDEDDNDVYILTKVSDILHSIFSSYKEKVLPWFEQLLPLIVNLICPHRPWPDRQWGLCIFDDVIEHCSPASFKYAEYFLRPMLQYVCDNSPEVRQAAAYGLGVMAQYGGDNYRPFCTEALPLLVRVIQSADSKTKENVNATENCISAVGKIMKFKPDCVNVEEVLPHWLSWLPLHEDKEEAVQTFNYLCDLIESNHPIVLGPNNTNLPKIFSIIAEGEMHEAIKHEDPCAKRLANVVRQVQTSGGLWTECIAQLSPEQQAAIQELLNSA

human importin β1 = target: T2, human importin β1 (human, UniProt Q14974 1-876)
T2 construct: human importin β1; In pMCSG21 with His tag and TEV site; no cleavage step is described in the purification; also called hIMPβ1; IMPβ1; source: E. coli BL21(DE3)pLysS, purified (HisTrap, Superdex 200 SEC)

human importin β2 = target: T3, human importin β2 (human, UniProt Q92973 1-898)
T3 construct: human importin β2; In pET30a with His tag and TEV site; no cleavage step is described in the purification; also called hIMPβ2; IMPβ2; source: E. coli BL21(DE3)pLysS, purified (HisTrap, Superdex 200 SEC)
T3 sequence (looked up): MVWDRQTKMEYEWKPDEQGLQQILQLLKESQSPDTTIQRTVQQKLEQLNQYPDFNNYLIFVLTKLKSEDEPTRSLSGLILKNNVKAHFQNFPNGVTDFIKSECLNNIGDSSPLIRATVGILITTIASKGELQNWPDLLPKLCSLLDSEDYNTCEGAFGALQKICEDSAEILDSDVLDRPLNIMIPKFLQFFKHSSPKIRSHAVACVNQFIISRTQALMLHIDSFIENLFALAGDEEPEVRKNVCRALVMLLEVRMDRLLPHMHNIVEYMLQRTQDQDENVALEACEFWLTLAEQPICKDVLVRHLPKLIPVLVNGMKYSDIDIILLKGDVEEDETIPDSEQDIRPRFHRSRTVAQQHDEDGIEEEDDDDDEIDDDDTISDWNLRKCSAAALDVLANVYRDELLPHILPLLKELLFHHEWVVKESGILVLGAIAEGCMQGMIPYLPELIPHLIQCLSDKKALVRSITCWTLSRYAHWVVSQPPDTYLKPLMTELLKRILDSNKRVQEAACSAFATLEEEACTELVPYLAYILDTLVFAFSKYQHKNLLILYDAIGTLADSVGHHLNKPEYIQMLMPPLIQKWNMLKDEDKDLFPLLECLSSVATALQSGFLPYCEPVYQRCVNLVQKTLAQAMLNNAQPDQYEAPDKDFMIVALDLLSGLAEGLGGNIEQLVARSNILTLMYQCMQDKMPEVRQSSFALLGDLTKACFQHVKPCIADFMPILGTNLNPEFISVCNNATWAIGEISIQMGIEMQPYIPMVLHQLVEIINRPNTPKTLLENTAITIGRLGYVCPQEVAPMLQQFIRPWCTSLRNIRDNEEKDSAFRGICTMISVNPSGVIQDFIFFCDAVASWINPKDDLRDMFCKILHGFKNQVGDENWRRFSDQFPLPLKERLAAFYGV

Measured: binding result

T2 sequence (Q14974 whole entry): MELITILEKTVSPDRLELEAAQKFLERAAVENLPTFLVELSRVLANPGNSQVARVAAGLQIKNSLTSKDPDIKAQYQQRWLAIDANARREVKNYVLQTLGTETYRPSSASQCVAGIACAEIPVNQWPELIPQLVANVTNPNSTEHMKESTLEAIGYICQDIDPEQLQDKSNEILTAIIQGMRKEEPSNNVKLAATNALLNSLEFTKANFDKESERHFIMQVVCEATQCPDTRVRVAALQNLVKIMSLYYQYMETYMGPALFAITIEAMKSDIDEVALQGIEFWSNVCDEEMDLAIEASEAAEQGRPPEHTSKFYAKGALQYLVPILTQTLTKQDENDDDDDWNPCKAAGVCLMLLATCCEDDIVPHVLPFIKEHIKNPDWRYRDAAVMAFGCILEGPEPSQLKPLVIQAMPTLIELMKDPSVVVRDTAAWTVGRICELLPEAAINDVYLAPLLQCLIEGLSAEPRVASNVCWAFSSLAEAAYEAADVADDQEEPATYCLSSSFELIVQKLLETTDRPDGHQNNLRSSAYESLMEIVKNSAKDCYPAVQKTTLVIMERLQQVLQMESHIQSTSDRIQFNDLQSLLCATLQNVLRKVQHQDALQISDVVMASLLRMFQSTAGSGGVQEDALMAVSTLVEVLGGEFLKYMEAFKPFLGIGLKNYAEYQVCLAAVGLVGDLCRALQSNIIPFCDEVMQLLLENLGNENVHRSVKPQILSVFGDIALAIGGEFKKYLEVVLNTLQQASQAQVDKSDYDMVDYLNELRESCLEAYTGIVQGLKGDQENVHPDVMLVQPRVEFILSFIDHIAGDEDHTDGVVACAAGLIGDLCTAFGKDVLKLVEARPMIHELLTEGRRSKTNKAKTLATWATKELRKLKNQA

B1: BSB PyV-LTA;NLS peptide (Black Sea Bass polyomavirus large tumor antigen residues 660-683) (peptide)
peptide: {FITC-Ahx}-IAEYKRRHNIGSDGLPNKRRRCLF
notes: also called BSB PyV-LTA 660-683; BSBPyV LTA FITC-NLS peptide
binds: all assays above
